Where a chain is given by its changes, count along the chain named.
B1: BSPSMA/CD3-1200 (bispecific antibody, IgG4, V domains shown)
VH 1: QVQLVESGGGVVQPGRSLRLSCAASGFTFSSYGMHWVRQAPGKGLEWVAVISYAGNNKYYADSVKGRFTVSRDNSKKTLYLQMNSLRSEDTAVYYCAKDSYYDFLTDPDVLDIWGQGTMVTVSS
VH 2: EVQLVESGGGLVQPGRSLRLSCAASGFTFDDYSMHWVRQAPGKGLEWVSGISWNSGSIGYADSVKGRFTISRDNAKNSLYLQMNSLRAEDTALYYCAKDGSGYGKFYHYGLDVWGQGTTVTVSS
VL: DIQMTQSPSSLSASVGDSVTITCRASQSINNYLNWYQQKPGKAPKLLIYTASSLLSGVPSRFSGSGSGTDFTLTISGLHPEDFATYFCQQSFSTPPITFGQGTRLDIK
notes: modified (chimeric) IgG4 Fc domain; also called PSMA-VH-11810 x CD3-VH-G12
B2: H1H7221P (antibody, human IgG1, V domains shown)
VH: B1 VH 2 with A23V, I58K, G59D, D99Y
VL: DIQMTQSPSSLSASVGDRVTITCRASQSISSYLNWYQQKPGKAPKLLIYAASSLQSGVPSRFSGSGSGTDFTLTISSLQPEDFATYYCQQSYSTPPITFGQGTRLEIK
notes: Monovalent 1-arm format: second Fab removed, only the Fc portion (CH2-CH3) expressed; human IgG1 Fc; tied by the numerical identifier; also called H1H7221B
B3: BSPSMA/CD3-1600 (bispecific antibody, IgG4, V domains shown)
VH 1: B1 VH 1
VH 2: B1 VH 2 with I58K, L111M
VL: B1 VL
notes: modified (chimeric) IgG4 Fc domain; also called PSMA-VH-11810 x CD3-VH-G16
B4: BSPSMA/CD3-1500 (bispecific antibody, IgG4, V domains shown)
VH 1: B1 VH 1
VH 2: B1 VH 2 with I58K, H108Y
VL: B1 VL
notes: modified (chimeric) IgG4 Fc domain; also called PSMA-VH-11810 x CD3-VH-G15
B5: H1H7194P (antibody, human IgG1, V domains shown)
VH: EVQLVESGGGLVQPGRSLRLSCAASGFTFGDYTMHWVRQAPGKGLEWVSDISWNSGSKDYADSVKGRFTISRDNAKNSLYLQMNSLRTEDTAFYYCAKDSRGYGLYYHLGLDVWGQGTTVTVSS
VL: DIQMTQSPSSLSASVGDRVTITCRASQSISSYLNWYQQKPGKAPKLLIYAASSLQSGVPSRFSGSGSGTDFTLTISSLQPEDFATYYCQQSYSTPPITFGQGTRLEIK
notes: Monovalent 1-arm format: second Fab removed, only the Fc portion (CH2-CH3) expressed; human IgG1 Fc; tied by the numerical identifier; also called H1H7194B
B6: H1H7195P (antibody, human IgG1, V domains shown)
VH: B5 VH with G30A, K58I, D59A, L105H, Y107K, H108Y
VL: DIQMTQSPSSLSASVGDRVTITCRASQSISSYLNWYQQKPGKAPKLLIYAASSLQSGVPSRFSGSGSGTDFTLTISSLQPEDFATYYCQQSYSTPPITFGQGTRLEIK
notes: Monovalent 1-arm format: second Fab removed, only the Fc portion (CH2-CH3) expressed; human IgG1 Fc; tied by the numerical identifier; also called H1H7195B
B7: H1H7204P (antibody, human IgG1, V domains shown)
VH: EVQLVESRGALVQPGRSLRLSCAASGFAFNDYTMHWVRQAPGKGLEWVSDISWNSNSKDYADSVKGRFTISRDNAKNSLYLQMNSLRAEDTALYYCVKDGSGYGKFSLYALDVWGQGTTVTVSS
VL: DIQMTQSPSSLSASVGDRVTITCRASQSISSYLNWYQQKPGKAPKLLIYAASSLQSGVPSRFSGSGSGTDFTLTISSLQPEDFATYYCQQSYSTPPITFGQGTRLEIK
notes: Monovalent 1-arm format: second Fab removed, only the Fc portion (CH2-CH3) expressed; human IgG1 Fc; tied by the numerical identifier; also called H1H7204B
B8: H1H7232P (antibody, human IgG1, V domains shown)
VH: EVQLVESGGGLVHPGRSLRLSCAASGFTFDDYTMHWVRQAPGKGLEWVSDISWNSGSRGYADSVKGRFTISRDNAENSLYLQMNSLRAEDTALYYCAKDKSGYGHYYYYAMDVWGQGTTVTVSS
VL: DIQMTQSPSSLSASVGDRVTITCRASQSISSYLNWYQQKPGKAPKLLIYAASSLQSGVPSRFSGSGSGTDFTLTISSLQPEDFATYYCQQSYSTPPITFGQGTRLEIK
notes: Monovalent 1-arm format: second Fab removed, only the Fc portion (CH2-CH3) expressed; human IgG1 Fc; tied by the numerical identifier; also called H1H7232B
B9: H1H7208P (antibody, human IgG1, V domains shown)
VH: B8 VH with E1Q, T28K, R58K, E76K, N77D, N84D, E89A, L93F, Y106F
VL: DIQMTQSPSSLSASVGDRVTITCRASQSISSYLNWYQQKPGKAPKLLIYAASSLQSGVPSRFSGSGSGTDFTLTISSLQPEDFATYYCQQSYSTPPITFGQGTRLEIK
notes: Monovalent 1-arm format: second Fab removed, only the Fc portion (CH2-CH3) expressed; human IgG1 Fc; tied by the numerical identifier; also called H1H7208B
B10: H1H7233P (antibody, human IgG1, V domains shown)
VH: EVQLVESGGGLVQPGGSLRLSCEASGFTFADYTLHWVRQAPGKGLEWVSDISWNSGTRGYADSVRGRFTISRDNAKKSLYLQMNSLRSEDTALYYCVKDGSGYGRYNFYAMDVWGQGTTVTVSS
VL: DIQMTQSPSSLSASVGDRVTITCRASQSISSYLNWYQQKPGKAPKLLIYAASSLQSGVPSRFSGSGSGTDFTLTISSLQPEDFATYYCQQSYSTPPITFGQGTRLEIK
notes: Monovalent 1-arm format: second Fab removed, only the Fc portion (CH2-CH3) expressed; human IgG1 Fc; tied by the numerical identifier; also called H1H7233B
B11: H1H7242P (antibody, human IgG1, V domains shown)
VH: EVQLVESGGGLVQPGRSLRLSCAASGFTFDDYTMHWVRQGPGKGLEWVSDIGWNSNSIGYADSVKGRFTISRDNAKNSLYLQMNSLRPEDTALYFCVKDKSGYGKFFIGLDVWGQGTMVTVSS
VL: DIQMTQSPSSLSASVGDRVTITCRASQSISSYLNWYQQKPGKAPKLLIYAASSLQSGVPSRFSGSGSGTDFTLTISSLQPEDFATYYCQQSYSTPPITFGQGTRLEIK
notes: Monovalent 1-arm format: second Fab removed, only the Fc portion (CH2-CH3) expressed; human IgG1 Fc; tied by the numerical identifier; also called H1H7242B
B12: H1H7251P (antibody, human IgG1, V domains shown)
VH: EVQLVESGGGLVQPGRSLRLSCAASGFTFADYTMHWVRQGPGTGLEWVSDIGWSGGSLGYADSVKGRFTISRDNAKNSLYLEMNNLRPEDTALYYCVKDKSGYGKFQYGLDVWGQGTTVTVSS
VL: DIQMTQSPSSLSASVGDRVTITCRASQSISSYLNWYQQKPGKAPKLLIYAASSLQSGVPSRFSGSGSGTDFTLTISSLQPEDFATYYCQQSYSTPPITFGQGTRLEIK
notes: Monovalent 1-arm format: second Fab removed, only the Fc portion (CH2-CH3) expressed; human IgG1 Fc; tied by the numerical identifier; also called H1H7251B
B13: H1H7250P (antibody, human IgG1, V domains shown)
VH: B11 VH with E1Q, S57T, I58K
VL: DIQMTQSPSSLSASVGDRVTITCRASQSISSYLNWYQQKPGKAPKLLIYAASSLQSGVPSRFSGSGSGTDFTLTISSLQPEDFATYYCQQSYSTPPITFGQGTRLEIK
notes: Monovalent 1-arm format: second Fab removed, only the Fc portion (CH2-CH3) expressed; human IgG1 Fc; tied by the numerical identifier; also called H1H7250B
B14: H1H7241P (antibody, human IgG1, V domains shown)
VH: B11 VH with D30A, S57T, T69A, F95Y, F107Q, I108Y, M118T
VL: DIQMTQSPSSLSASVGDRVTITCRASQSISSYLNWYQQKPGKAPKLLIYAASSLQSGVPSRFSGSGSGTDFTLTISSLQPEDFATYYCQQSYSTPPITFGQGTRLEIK
notes: Monovalent 1-arm format: second Fab removed, only the Fc portion (CH2-CH3) expressed; human IgG1 Fc; tied by the numerical identifier; also called H1H7241B
B15: H1H7254P (antibody, human IgG1, V domains shown)
VH: B11 VH with L11V, T28K, D31G, S57T
VL: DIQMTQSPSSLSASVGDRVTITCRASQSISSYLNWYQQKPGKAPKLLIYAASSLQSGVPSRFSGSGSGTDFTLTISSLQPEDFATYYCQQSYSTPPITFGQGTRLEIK
notes: Monovalent 1-arm format: second Fab removed, only the Fc portion (CH2-CH3) expressed; human IgG1 Fc; tied by the numerical identifier; also called H1H7254B
B16: H1H7258P (antibody, human IgG1, V domains shown)
VH: B11 VH with E1Q, S57T, K76R, F95Y, F107Q, I108Y, M118T
VL: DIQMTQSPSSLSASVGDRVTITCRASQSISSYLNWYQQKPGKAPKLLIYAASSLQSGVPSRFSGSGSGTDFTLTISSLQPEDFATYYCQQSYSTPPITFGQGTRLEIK
notes: Monovalent 1-arm format: second Fab removed, only the Fc portion (CH2-CH3) expressed; human IgG1 Fc; tied by the numerical identifier; also called H1H7258B
B17: H1H7196P (antibody, human IgG1, V domains shown)
VH: EVQLVESGGGMVQPGRSLRLSCAASGFPFNDYTMHWVRQVPGRGLEWVSDISWNSGSKGYADSVKGRFIISRDNAKNSLYLQMNSLRVEDTALYYCVKDGSGYGRFHYYAMDVWGQGTTVTVSS
VL: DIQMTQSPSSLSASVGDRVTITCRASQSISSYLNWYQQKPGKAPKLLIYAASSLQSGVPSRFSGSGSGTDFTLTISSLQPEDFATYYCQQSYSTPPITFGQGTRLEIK
notes: Monovalent 1-arm format: second Fab removed, only the Fc portion (CH2-CH3) expressed; human IgG1 Fc; tied by the numerical identifier; also called H1H7196B

Assays:
[1] = biological target: T1, human PSMA on PSMA-expressing cells (human, UniProt Q04609 1-750); test: FACS on B16F10.9/PSMA cells
T1 construct: Cell line is named under assay or readout in each row; also called B16F10.9/hPSMA; B16F10.9/PSMA
Description: (§1) Briefly, 2×10⁵ cells/well of human CD3-expressing Jurkat, cynomolgus T, or human PSMA-specific expressing cells were incubated with a serial dilution of bispecific antibodies for 30 min at 4° C. After incubation, cells were washed and a goat F(ab′)₂ anti-human Fcγ PE labeled secondary (Jackson Immunolabs) was added to the cells for an additional 30 min. Next, cells were washed, re-suspended in cold PBS+1% BSA and analyzed via flow cytometry on a BD FACS Canto II.
(§2) For FACS analysis, cells were gated by forward scatter height vs. forward scatter area for single events selection, followed by side and forward scatters. The EC₅₀ for cell binding titration was determined using Prism software. Values were calculated using 4-parameter non-linear regression analysis.

[2] = biological target: T2, soluble heterodimeric hCD3ε/δ.mFc protein (human); test: SPR MASS-1, 37 C, antigen-capture (hCD3ε/δ.mFc captured), antibody injected
T2 construct: also called soluble human CD3; soluble heterodimeric CD3 protein
T2 chain 1: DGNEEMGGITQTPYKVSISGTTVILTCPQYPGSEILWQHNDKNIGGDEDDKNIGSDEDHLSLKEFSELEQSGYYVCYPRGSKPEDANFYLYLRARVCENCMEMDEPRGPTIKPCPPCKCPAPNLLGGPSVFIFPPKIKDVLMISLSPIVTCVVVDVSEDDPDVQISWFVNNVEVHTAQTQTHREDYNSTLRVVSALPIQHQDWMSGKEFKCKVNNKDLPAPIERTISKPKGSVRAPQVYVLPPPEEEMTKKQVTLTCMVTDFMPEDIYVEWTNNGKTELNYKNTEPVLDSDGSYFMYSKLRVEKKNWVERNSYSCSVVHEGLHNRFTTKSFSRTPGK
T2 chain 2: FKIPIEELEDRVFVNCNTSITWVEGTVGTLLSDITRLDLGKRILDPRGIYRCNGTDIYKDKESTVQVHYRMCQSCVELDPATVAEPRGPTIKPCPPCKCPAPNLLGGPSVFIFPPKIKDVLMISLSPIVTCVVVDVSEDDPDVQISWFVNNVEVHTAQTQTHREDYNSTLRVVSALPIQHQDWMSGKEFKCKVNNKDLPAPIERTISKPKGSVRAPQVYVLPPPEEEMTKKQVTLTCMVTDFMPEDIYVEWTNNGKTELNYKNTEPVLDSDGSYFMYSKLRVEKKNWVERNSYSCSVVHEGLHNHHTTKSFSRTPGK
Description: Measurements were conducted on a Sierra Sensors MASS-1 instrument.
In the antigen-capture format, the MASS-1 high-density amine sensor surface was derivatized with a goat anti-mouse IgG2a polyclonal antibody (Southern Biotech). Soluble heterodimeric CD3 protein was captured and the respective antibodies were injected over the captured antigen.
Kinetic association (kₐ) and dissociation (kd) rate constants were determined by processing and fitting the data to a 1:1 binding model using MASS-1 AnalyserR2 curve fitting software. Binding dissociation equilibrium constants (KD) and dissociative half-lives (t_{1/2}) were calculated from the kinetic rate constants as: KD (M)=kd/kₐ; and t_{1/2} (min)=(ln 2/(60*kd).

[3] = biological target: T3, human CD3 on CD3-expressing cells (Jurkat, human T cells) (human, UniProt P07766 23-207; P04234 22-171); test: FACS on Jurkat cells
T3 construct: On cells CD3 stands within the T cell receptor complex (also gamma and zeta chains); also called human CD3 expressing Jurkat cells
Description: as §1, §2

[4] = biological target: cynomolgus monkey CD3 expressed on monkey T-cells (PBMCs) (cynomolgus monkey, UniProt Q95LI5 22-198; Q95LI8 22-171); test: cell-based or functional assay
[5] = biological target: T4, human CD3 expressed on cells (Jurkat cells; human T-cells of PBMC) (human, UniProt P09693 23-182; P20963 22-164); test: cell-based or functional assay
[6] = biological target: T4, human CD3 expressed on cells (Jurkat …); test: FACS titration on Jurkat cells, monovalent 1-arm antibody
Description: FACS data was acquired using the following protocol: Cells at 2×10⁵ per well were incubated with serially diluted antibodies for 30 min on ice. Post incubation, cells were washed and secondary antibody was added and incubated for an additional 30 minutes. After incubation, cells were washed, re-suspended in cold PBS containing 1% BSA and analyzed by flow cytometry with viable Jurkat cells gated by side and forward scatters. The EC₅₀s for cell binding titration were determined using Prism software with values calculated using a 4-parameter non-linear regression analysis.

[7] = biological target: T4, human CD3 expressed on cells (Jurkat …); test: cell-based or functional assay; remark: listed apart in the source

T1 sequence (Q04609 whole entry): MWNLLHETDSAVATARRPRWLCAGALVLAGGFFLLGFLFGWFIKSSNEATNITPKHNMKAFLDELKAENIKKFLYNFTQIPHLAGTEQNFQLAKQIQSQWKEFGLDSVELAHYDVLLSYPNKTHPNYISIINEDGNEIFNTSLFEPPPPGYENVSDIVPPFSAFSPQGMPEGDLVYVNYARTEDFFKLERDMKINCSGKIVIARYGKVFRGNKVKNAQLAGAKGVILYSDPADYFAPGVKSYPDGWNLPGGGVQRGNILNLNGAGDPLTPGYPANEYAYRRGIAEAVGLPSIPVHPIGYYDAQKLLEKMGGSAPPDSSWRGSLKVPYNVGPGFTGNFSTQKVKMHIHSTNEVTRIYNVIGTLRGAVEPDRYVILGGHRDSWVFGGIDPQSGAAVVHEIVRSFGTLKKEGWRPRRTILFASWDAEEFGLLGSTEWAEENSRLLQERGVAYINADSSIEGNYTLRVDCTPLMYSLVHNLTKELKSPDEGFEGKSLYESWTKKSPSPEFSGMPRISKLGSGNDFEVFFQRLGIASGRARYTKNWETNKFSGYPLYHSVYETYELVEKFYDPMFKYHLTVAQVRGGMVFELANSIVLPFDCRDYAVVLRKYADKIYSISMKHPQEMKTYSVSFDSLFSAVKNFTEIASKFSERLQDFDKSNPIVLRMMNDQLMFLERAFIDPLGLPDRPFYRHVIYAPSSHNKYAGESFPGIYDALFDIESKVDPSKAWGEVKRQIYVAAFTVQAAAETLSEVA
T4 sequence (chain, as listed by the source, chain 1 of 4): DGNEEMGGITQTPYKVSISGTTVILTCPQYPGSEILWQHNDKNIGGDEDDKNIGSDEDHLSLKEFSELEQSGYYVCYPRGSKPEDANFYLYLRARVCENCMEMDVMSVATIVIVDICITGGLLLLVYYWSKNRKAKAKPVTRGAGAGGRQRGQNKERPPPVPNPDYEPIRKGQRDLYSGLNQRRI
T4 sequence (chain, as listed by the source, chain 2 of 4): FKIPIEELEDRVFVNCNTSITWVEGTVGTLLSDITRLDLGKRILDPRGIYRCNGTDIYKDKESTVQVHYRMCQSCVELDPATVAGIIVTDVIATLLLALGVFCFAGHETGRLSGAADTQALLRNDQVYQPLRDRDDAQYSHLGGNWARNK
T4 sequence (P09693 23-182, chain 3 of 4): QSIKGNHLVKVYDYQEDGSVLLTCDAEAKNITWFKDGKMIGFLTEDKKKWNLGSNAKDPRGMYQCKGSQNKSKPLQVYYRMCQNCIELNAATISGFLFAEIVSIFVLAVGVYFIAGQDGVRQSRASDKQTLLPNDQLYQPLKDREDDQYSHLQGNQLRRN
T4 sequence (P20963 22-164, chain 4 of 4): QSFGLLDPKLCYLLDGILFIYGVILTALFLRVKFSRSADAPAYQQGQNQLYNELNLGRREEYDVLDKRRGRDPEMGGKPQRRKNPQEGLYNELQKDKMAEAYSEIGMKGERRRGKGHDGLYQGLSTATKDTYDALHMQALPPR
T3 sequence (P07766 23-207 limits assumed, chain 1 of 2): as the sequence (chain, as listed by the source, chain 1 of 4) above
T3 sequence (P04234 22-171 limits assumed, chain 2 of 2): as the sequence (chain, as listed by the source, chain 2 of 4) above
Sequence of cynomolgus monkey CD3 expressed on monkey T-cells (PBMCs) (Q95LI5 22-198, chain 1 of 2): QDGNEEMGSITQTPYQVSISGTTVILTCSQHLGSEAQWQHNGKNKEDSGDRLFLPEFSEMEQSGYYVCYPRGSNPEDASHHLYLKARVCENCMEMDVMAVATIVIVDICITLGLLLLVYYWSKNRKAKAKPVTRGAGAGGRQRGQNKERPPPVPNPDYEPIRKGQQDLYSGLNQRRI
Sequence of cynomolgus monkey CD3 expressed on monkey T-cells (PBMCs) (Q95LI8 22-171, chain 2 of 2): as the sequence (chain, as listed by the source, chain 2 of 4) above, with I5V, N15K, I20V, S32T, D33N, I34N, T64A, S74N, V83L, H141R counted along it

Row | Binder | EC50 [1] [nM] | Kd [2] [nM] | T½ [2] [min] | koff [2] [s⁻¹] | kon [2] [M⁻¹ s⁻¹] | EC50 [3] [nM] | EC50 [M] mfPBMC Proliferation [4] [M] | EC50 [M] hPBMC Proliferation [5] [M] | EC50 [6] [nM] | U937 Cytotoxicity Human T-cells [7] [pM]
1 | B1 | 1.16 | 64.2 | 4.7 | 0.00247 | 38500 | 47.2 |  |  |  | 
2 | B2 |  |  |  |  |  |  | 1.72e-12 | 2.6e-12 | 1.4 | 9.21
3 | B3 | 1.03 | 37.8 | 4.7 | 0.00243 | 64300 | 56.8 |  |  |  | 
4 | B4 | 1.21 | 82.9 | 1.9 | 0.00611 | 73600 | 93 |  |  |  | 
5 | B5 |  |  |  |  |  |  | 4.84e-12 | 2.37e-12 | 1.5 | 4.71
6 | B6 |  |  |  |  |  |  | 1.36e-12 | 2.42e-12 | 0.342 | 6.1
7 | B7 |  |  |  |  |  |  | 1.26e-11 | 1.51e-12 | 2.29 | 10.8
8 | B8 |  |  |  |  |  |  | 4.9e-11 | 1.03e-12 | 1.5 | 9.96
9 | B9 |  |  |  |  |  |  | 7.02e-12 | 1.46e-12 | 51.9 | 45.9
10 | B10 |  |  |  |  |  |  | 4.35e-12 | 7.34e-13 | 0.715 | 11.9
11 | B11 |  |  |  |  |  |  | 1.38e-11 | 2.13e-12 | 1.83 | 7.5
12 | B12 |  |  |  |  |  |  | 1.83e-11 | 1.3e-12 | 1.45 | 1.81
13 | B13 |  |  |  |  |  |  | 7.27e-11 | 2.43e-12 | 1.37 | 5.91
14 | B14 |  |  |  |  |  |  | 2.05e-11 | 1.05e-12 | 1.01 | 12.3
15 | B15 |  |  |  |  |  |  | 8.88e-11 | 2.8e-12 | 1.09 | 4.18
16 | B16 |  |  |  |  |  |  | 1.11e-11 | 2.17e-12 | 1.07 | 15.3
17 | B17 |  |  |  |  |  |  | 1.4e-08 | 1.27e-12 | 34.4 | 19.6

Reference: patent US20190127480A1 (Regeneron, published 2019)
